Source: patent US7662384B2, “Use of anti-α5β1 antibodies to inhibit cancer cell proliferation” (Facet Biotech Corporation, priority 2004, dated 2010)

Tests used:
Experiment in all cases: FACS analysis of cancer cell line with IIA1
Type in all cases: binding
[1] = target: T1, α5β1 integrin on the cell surface of A498 (Homo sapiens, UniProt P05556+P08648); settings: A498 (renal); IIA1 10 μg/ml; background MFI ~5
T1 construct: endogenous in cells
Protocol: (§1) Cells were removed with 5 mM EDTA in Tris-HCl (pH 8.0) and blocked by centrifugation in Hank's balanced salt solution containing 3% heat inactivated FBS, 1% normal goat serum (Sigma) and 1% BSA at 4° C. for 5 minutes. Cells were incubated for 30-60 minutes at 4° C. with the mouse anti-α5β1 antibody, IIA1 (10 μg/ml) in FACS buffer (PBS containing 0.1% BSA). Excess monoclonal antibody was removed by centrifugation and cells were washed two times with FACS buffer prior to resuspending in PE-anti-mouse IgG (H+ L) antibody (Southern Biotech, 1:400 dilution) for 30-60 minutes at 4° C. After washing cells were re-suspended in FACS buffer containing propidium iodide (1 μg/ml). Mean fluorescence intensity (MFI) was measured on a FACSCalibur (Becton Dickinson). Background MFI was ˜5.

[2] = target: T2, α5β1 integrin on the cell surface of ES-2 (Homo sapiens, UniProt P05556+P08648); settings: ES-2 (ovarian); IIA1 10 μg/ml; background MFI ~5
T2 construct: endogenous in cells
Protocol: as §1

[3] = target: T3, α5β1 integrin on the cell surface of HT1080 (Homo sapiens, UniProt P05556+P08648); settings: HT1080 (fibrosarcoma); IIA1 10 μg/ml; background MFI ~5
T3 construct: endogenous in cells
Protocol: as §1

[4] = target: T4, α5β1 integrin on the cell surface of UACC-62 (Homo sapiens, UniProt P05556+P08648); settings: UACC-62 (melanoma); IIA1 10 μg/ml; background MFI ~5
T4 construct: endogenous in cells
Protocol: as §1

[5] = target: T5, α5β1 integrin on the cell surface of H460 (Homo sapiens, UniProt P05556+P08648); settings: H460 (lung); IIA1 10 μg/ml; background MFI ~5
T5 construct: endogenous in cells
Protocol: as §1

[6] = target: T6, α5β1 integrin on the cell surface of EKVX (Homo sapiens, UniProt P05556+P08648); settings: EKVX (lung); IIA1 10 μg/ml; background MFI ~5
T6 construct: endogenous in cells
Protocol: as §1

[7] = target: T7, α5β1 integrin on the cell surface of MIA PACA-2 (Homo sapiens, UniProt P05556+P08648); settings: MIA PACA-2 (pancreas); IIA1 10 μg/ml; background MFI ~5
T7 construct: endogenous in cells
Protocol: as §1

[8] = target: T8, α5β1 integrin on the cell surface of TK-10 (Homo sapiens, UniProt P05556+P08648); settings: TK-10 (renal); IIA1 10 μg/ml; background MFI ~5
T8 construct: endogenous in cells
Protocol: as §1

[9] = target: T9, α5β1 integrin on the cell surface of C32 (Homo sapiens, UniProt P05556+P08648); settings: C32 (melanoma); IIA1 10 μg/ml; background MFI ~5
T9 construct: endogenous in cells
Protocol: as §1

[10] = target: T10, α5β1 integrin on the cell surface of A375 (Homo sapiens, UniProt P05556+P08648); settings: A375 (melanoma); IIA1 10 μg/ml; background MFI ~5
T10 construct: endogenous in cells
Protocol: as §1

[11] = target: T11, α5β1 integrin on the cell surface of HT1376 (Homo sapiens, UniProt P05556+P08648); settings: HT1376 (bladder); IIA1 10 μg/ml; background MFI ~5
T11 construct: endogenous in cells
Protocol: as §1

[12] = target: T12, α5β1 integrin on the cell surface of A549 (Homo sapiens, UniProt P05556+P08648); settings: A549 (lung); IIA1 10 μg/ml; background MFI ~5
T12 construct: endogenous in cells
Protocol: as §1

[13] = target: T13, α5β1 integrin on the cell surface of HT144 (Homo sapiens, UniProt P05556+P08648); settings: HT144 (melanoma); IIA1 10 μg/ml; background MFI ~5
T13 construct: endogenous in cells
Protocol: as §1

[14] = target: T14, α5β1 integrin on the cell surface of SW839 (Homo sapiens, UniProt P05556+P08648); settings: SW839 (renal); IIA1 10 μg/ml; background MFI ~5
T14 construct: endogenous in cells
Protocol: as §1

[15] = target: T15, α5β1 integrin on the cell surface of 786-0 (Homo sapiens, UniProt P05556+P08648); settings: 786-0 (renal); IIA1 10 μg/ml; background MFI ~5
T15 construct: endogenous in cells
Protocol: as §1

[16] = target: T16, α5β1 integrin on the cell surface of NW231 (Homo sapiens, UniProt P05556+P08648); settings: NW231 (breast); IIA1 10 μg/ml; background MFI ~5
T16 construct: endogenous in cells
T16 sequence (P08648 42-894 limits assumed): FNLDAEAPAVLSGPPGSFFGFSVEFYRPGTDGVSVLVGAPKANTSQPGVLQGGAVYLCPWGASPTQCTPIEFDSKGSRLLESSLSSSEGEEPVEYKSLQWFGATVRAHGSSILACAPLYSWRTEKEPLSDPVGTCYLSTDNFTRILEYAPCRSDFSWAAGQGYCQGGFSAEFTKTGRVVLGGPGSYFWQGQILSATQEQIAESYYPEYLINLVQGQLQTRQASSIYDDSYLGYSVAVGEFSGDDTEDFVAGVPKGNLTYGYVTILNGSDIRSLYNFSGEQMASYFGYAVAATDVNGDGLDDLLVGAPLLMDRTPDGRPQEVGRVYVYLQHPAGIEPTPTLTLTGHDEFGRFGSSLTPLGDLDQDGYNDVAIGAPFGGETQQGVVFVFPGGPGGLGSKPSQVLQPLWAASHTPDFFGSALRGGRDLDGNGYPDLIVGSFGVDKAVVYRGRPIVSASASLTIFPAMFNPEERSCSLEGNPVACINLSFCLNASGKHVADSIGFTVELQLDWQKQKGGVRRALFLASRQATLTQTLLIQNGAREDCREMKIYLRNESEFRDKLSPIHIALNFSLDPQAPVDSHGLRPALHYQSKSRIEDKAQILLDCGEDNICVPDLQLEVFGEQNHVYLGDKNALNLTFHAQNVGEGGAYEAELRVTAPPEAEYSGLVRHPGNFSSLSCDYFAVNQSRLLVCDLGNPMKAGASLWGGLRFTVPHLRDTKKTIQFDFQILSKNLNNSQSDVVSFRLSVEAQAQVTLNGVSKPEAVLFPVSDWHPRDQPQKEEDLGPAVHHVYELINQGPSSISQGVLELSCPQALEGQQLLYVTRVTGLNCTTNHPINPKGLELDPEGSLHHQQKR
T16 sequence (P08648 895-1049 limits assumed): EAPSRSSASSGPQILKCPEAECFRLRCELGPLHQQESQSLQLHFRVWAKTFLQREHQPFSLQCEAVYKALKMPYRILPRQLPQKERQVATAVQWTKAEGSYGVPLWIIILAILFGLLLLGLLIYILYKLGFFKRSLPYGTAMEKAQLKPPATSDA
T16 sequence (P05556 21-798): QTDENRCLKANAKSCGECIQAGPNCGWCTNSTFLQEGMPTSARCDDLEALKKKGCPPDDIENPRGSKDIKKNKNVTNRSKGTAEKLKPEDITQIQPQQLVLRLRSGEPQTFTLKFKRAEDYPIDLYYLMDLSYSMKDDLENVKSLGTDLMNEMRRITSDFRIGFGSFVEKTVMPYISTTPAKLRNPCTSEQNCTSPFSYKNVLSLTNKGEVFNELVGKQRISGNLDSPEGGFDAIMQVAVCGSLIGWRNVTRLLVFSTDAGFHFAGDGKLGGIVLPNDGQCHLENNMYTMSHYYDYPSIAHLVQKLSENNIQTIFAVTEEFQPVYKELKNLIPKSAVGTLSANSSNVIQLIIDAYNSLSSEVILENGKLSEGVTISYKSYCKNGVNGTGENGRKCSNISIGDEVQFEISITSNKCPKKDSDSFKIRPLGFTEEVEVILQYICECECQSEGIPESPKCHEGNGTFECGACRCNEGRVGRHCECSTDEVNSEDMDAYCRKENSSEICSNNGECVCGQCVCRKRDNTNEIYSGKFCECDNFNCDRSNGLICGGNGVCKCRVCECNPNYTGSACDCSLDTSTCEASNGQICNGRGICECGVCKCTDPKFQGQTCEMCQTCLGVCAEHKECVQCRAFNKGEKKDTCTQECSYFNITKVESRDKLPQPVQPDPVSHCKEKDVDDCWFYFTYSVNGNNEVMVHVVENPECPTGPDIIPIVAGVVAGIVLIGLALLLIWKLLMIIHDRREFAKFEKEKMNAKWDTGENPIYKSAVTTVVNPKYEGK
Protocol: as §1

[17] = target: T17, α5β1 integrin on the cell surface of HCT-116 (Homo sapiens, UniProt P05556+P08648); settings: HCT-116 (colon); IIA1 10 μg/ml; background MFI ~5
T17 construct: endogenous in cells
Protocol: as §1

[18] = target: T18, α5β1 integrin on the cell surface of COLO 357 (Homo sapiens, UniProt P05556+P08648); settings: COLO 357 (pancreas); IIA1 10 μg/ml; background MFI ~5
T18 construct: endogenous in cells
Protocol: as §1

[19] = target: T19, α5β1 integrin on the cell surface of A2058 (Homo sapiens, UniProt P05556+P08648); settings: A2058 (melanoma); IIA1 10 μg/ml; background MFI ~5
T19 construct: endogenous in cells
Protocol: as §1

[20] = target: T20, α5β1 integrin on the cell surface of SN12C (Homo sapiens, UniProt P05556+P08648); settings: SN12C (renal); IIA1 10 μg/ml; background MFI ~5
T20 construct: endogenous in cells
Protocol: as §1

[21] = target: T21, α5β1 integrin on the cell surface of LOX (Homo sapiens, UniProt P05556+P08648); settings: LOX (melanoma); IIA1 10 μg/ml; background MFI ~5
T21 construct: endogenous in cells
T21 sequence (P08648 42-894 limits assumed): as the sequence (P08648 42-894 limits assumed) above
T21 sequence (P08648 895-1049 limits assumed): as the sequence (P08648 895-1049 limits assumed) above
T21 sequence (P05556 21-798): as the sequence (P05556 21-798) above
Protocol: as §1

[22] = target: T22, α5β1 integrin on the cell surface of CHL-1 (Homo sapiens, UniProt P05556+P08648); settings: CHL-1 (melanoma); IIA1 10 μg/ml; background MFI ~5
T22 construct: endogenous in cells
Protocol: as §1

B1: IIA1: parent mouse IgG1 class anti-α5β1 antibody shown to inhibit α5β1 integrin binding to fibronectin (antibody, V domains shown)
VH: MAVLGLLLCLVTFPSCVLSQVQLKESGPGLVAPSQSLSITCTISGFSLTDYGVHWVRQPPGKGLEWLVVIWSDGSSTYNSALKSRMTIRKDNSKSQVFLIMNSLQTDDSAMYYCARHGTYYGMTTTGDALDYWGQGTSVTVSS
VL: MDFQVQIFSFLLISASVIMSRGQIVLTQSPAIMSASLGERVTMTCTASSSVSSNYLHWYQQKPGSAPNLWIYSTSNLASGVPARFSGSGSGTSYSLTISSMEAEDAATYYCHQYLRSPPTFGGGTKLEIK
modifications: mus muscalus
α5β1 Surface Expression (MFI) [1]: 67.1 MFI
α5β1 Surface Expression (MFI) [2]: 132.8 MFI
α5β1 Surface Expression (MFI) [3]: 421.7 MFI
α5β1 Surface Expression (MFI) [4]: 88.5 MFI
α5β1 Surface Expression (MFI) [5]: 87.5 MFI
α5β1 Surface Expression (MFI) [6]: 36.7 MFI
α5β1 Surface Expression (MFI) [7]: 61.9 MFI
α5β1 Surface Expression (MFI) [8]: 36.6 MFI
α5β1 Surface Expression (MFI) [9]: 5.7 MFI
α5β1 Surface Expression (MFI) [10]: 156.1 MFI
α5β1 Surface Expression (MFI) [11]: 111.9 MFI
α5β1 Surface Expression (MFI) [12]: 71.41 MFI
α5β1 Surface Expression (MFI) [13]: 102.1 MFI
α5β1 Surface Expression (MFI) [14]: 65.8 MFI
α5β1 Surface Expression (MFI) [15]: 144.4 MFI
α5β1 Surface Expression (MFI) [16]: 132.2 MFI
α5β1 Surface Expression (MFI) [17]: 42.5 MFI
α5β1 Surface Expression (MFI) [18]: 7.8 MFI
α5β1 Surface Expression (MFI) [19]: 36.2 MFI
α5β1 Surface Expression (MFI) [20]: 129.1 MFI
α5β1 Surface Expression (MFI) [21]: 261.6 MFI
α5β1 Surface Expression (MFI) [22]: 6.8 MFI
